Experimental findings from the nanobody polyreactivity screen of Harvey et al. (2022) are described below.

The nature of this series: yeast display, Sf9 membrane polyspecificity reagent, FACS + sequencing; frameworks hold sequencing errors. The procedure, abridged:
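Sorting gates, low and high (top ~1%), were placed on anti-HA fluorescence to track expression and on streptavidin fluorescence to track reagent binding. A clone's polyreactivity label is taken from the gate it came out of. The reagent was 10% biotinylated, detergent-solubilized Sf9 membrane, applied for 1 hour at 4 °C to galactose-induced yeast display cells.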
As for “QVQLVESGGGLVQAGGSLRLSCAASGITFSRNAMGWYRQAPGKERELVAVISTRGGRTYYADSVKGRFTISRDNAKNTVYLQMNSLKPEDTAVYYCAASPDPYWRRMDYWGQGTQVTVSS”, the “polyreactivity (PSR sort gate)” value is reported as “high polyreactivity”.

Take “QVQLVESGGGLVQAGGSLRLSCAASGFTFSDNAMVWYRQAPGKERELVAAISEGSGITYYADSVKGRFTISRDNAKNTVTLQMNSLKPEDNAVYYCAADWLSKYDYWGQGTQVTVSS”: the “polyreactivity (PSR sort gate)” value is “low polyreactivity”.

Take “QVQLVESGGGLVQAGGSLRLSCAASGSIFGGYAMGWYRQAPGNERELVAAITYSAGNTYYADSVKGRFTISRDNAKNTVYLKMKSLKPEDTAVYYCAARTYRGPQYQYGNNYWGQGTQVTVSS”: the “polyreactivity (PSR sort gate)” value was “high polyreactivity”.

In the case of “QVQLVQSGGGLVQAGGSLRLSCDASGSMFLVYAMGWYRQAPGKERELVAAISRSGRTYADSVKGRFTISRDNAKNTVYLQMNSLKPEDTAVYYCAAGTKRRFEGDYWVQGTQVTVSS”, the “polyreactivity (PSR sort gate)” value is listed as “high polyreactivity”.

Take “QVQLVESGGGLVQAGGSLRLSCAASGLTFYQYTMGWYRQAPGKERELVAAISRRGGSTYYADSVKGRFTISRDNAKNTVYLQMNSLKPEDTAVYYCAARALRYSSDFDYWGQGTQVTVSS”: the “polyreactivity (PSR sort gate)” value is reported as “high polyreactivity”.

Take “QVQLVESGGGLVQAGGSLRLSCAASGSIFWRNAMGWYRQAPGKERELVAAITSGGTTNYADSVKGRFTISRDNAKNTVYLQMISLIPEDTAVYYCATGASYLRRYDHPHSDVDYWGQGTQVTVSS”: the “polyreactivity (PSR sort gate)” value was “low polyreactivity”.

Take “QDQRVESGGGLVQAGGSLRLSCAASGSIRGYAMGWYRQAPGKERELVASITWSGGSTYYADSVKGRFTISRDNSKNTVYLQMNSLKPEDPAVFYCAARPSPYASFFRPYDYWGQGTQVTVSS”: the “polyreactivity (PSR sort gate)” value is on record as “low polyreactivity”.

As to “QVQLVDSGGGLVQAGGSLRISCAASGSIFPSNAMGWYRQAPGKERELVAAINRDGITNYADSVKGRFTISRDNAKNTVYLQMNSLKPEDTAVYYCAAEFAGQWWEYGYWGQGTQVTESS”, the “polyreactivity (PSR sort gate)” value is reported as “low polyreactivity”.

In the case of “QVQLVESGGGLVQAGGSLRLSCAASGLIFTGNTMGWSRQAPGKETELVADITWSDGSTYYADSVKGRFTISRDTENNTVYLQMNSLKPEDTAVYYCAADSVLDRPVLYLWPWYLGDYWGQGTQVTVSS”, the “polyreactivity (PSR sort gate)” value is on record as “low polyreactivity”.

“QVQLVESGGALVQAGGSLRLICAASGRIFPRNVMGWYRQAPGKERELVAAISSRGTRTYYADSVKGRFTISRDNAKNTVYLQMYSLKPEDTAVYYCAADGPYEGYDYWGQGTQVTVSS”: the “polyreactivity (PSR sort gate)” value is listed as “high polyreactivity”.

“QVQLVESGGGLVQAGGSLRLSCAASGITLSYYAMGWYGPAPGKERELVAAISSNGGRTYYADSVMGRFTISRDNAKNTVYLQMNSLKPEDTAVYYCAARVYDYPRFGYWGQGTQVTVSS”: the “polyreactivity (PSR sort gate)” value was “high polyreactivity”.

Consider “QVQLVESVGGLVQAGGSLRLSCAASGRTFRYYTMGWYRQAPGKERELVASISWSGGSTYYADSVKGRFTISRDNAKNTVYLQMNSLKPEDTAVYYCNAVYGYRGVTNMDYWGQGTQVTVSS”, for which the “polyreactivity (PSR sort gate)” value is listed as “high polyreactivity”.

“QVQLVESGGGLVQAGGSLRLSCAASGSTFYKYAMGGYRQAPGKERELVASITSGGRTYYADSEKGRFTISRDNAKNTVYLQMNSLKPDDTAVYYCAKRYGRLTRYDYWGQGTQVTVSS”: the “polyreactivity (PSR sort gate)” value was “high polyreactivity”.

As to “QVQLVESGGGLVQAGGSLRLSCAASGSTLDDYVMGWYRQAPGKERELVAAISSSGSGTYYADSVKGRFTISRDNAKNTVYLQMNSLKPEDTAVYYCAAAYSYSGYGYYTYDYWGQGTQVTVSS”, the “polyreactivity (PSR sort gate)” value is reported as “low polyreactivity”.

Turning to “QVQLVESGGGLVQAGGSLRLSCAASGRIFVANAMGWYRPAPGKERELVAAISGRGSRTYYADSVKGRFTISRDNAKNTVYLQMNSLKPEDTAVYYCAVRKNRQYTGDYWGQGTQVTVSS”, the “polyreactivity (PSR sort gate)” value is listed as “high polyreactivity”.

For “QVQLVESGGGLVQAGGSLRLSCAASGRTFSGYAMGWYRPAPGKERELVATISSGGRTNYADSVKGRFTISRDNAKNTVYLQMISLKPEDTAVYYCNVRWWGRGPWSDYWGQGTQVTVSS”, the “polyreactivity (PSR sort gate)” value was “high polyreactivity”.

For the sequence “QVQLVESGGGLVQAGGSLRLSCAASGIIFYYYVMGCYRQAPGKERELVAAISRSGGRTRYADSVKGRFTISRDNAKNTVYLQMNSLKPEDTAVYYCAAVGSVNYDADFDYWGQGTQVTVSS”, the “polyreactivity (PSR sort gate)” value was “high polyreactivity”.

With “QVQLVESGGGLVQAGGSLRLSCAASGFTFPNYAMGWYRQAPGKERELVAAITSGGGRTNYADSVKGRFTISRDNAKNTVYLQMNSLKPVDTAVYYCAKTRVRGSEFGYWGQGTQVTVSS”, the “polyreactivity (PSR sort gate)” value is “low polyreactivity”.

As for “QVQLVESGGGLVQAGGSLRLSCHASGFIFGYKAMGWYRQAPGKERELVAAISSGGSTYYADSVKGRFTISRDNAKYTVYLQMKSLKPEDTAVFYCATVFVVLPPTRFDSWGQGTQVTVSS”, the “polyreactivity (PSR sort gate)” value was “low polyreactivity”.

As for “QVQLVESGGGLVQAGGSLRLTCAASGFTFPYYAMGWYRQAPGKERELVAAIDWTGGSTYYADSVKGRFTISRDNAKNTVYLQMNSLKPEDTAVYYCNRELTSPRRWHVSRAYDYWGQGTQVTVSS”, the “polyreactivity (PSR sort gate)” value is recorded as “low polyreactivity”.

In the case of “QVQLVESGGGLVQAGGSLRLSCAASGSIFAGYAIGWYRQAPGKERELVAAISWSGGGTYYADSVKGRFTISRDNAKNTVYLQMNSLKPEDTAVYYCNAYGYRHRGNGYWGQGTQVTVSS”, the “polyreactivity (PSR sort gate)” value is given as “high polyreactivity”.

Turning to “QVQLVESGGGLVQAGGSLRLSCAASGSIFTNNAMGWYRQAPGKERELVAGISFRGSSTYADSVKGRFTISRDNAKNTVYLQMNSLKPEDTAVYYCAAEWFDLEDDYWGQGTQVTVSS”, the “polyreactivity (PSR sort gate)” value is on record as “low polyreactivity”.

Turning to “QVQLVESGGGLVQAGGSLRLSCAASGSIFFSYAMGWYRKAPGKERELVAAIDYSGGGTYYADSVKGRFTISRDNAKNTVYLQMNSLKPEDTAVYYCKSDTEVWADTFISYRALNYWGQGTQVTVSS”, the “polyreactivity (PSR sort gate)” value is “low polyreactivity”.

On to “QVQLVESGGGLVQAGGSLRLSCAASGITFVAYAMGWYRQAPGKERELVAAISYNGGSTNYADSVKGRFTISRDNAKNTVYLQMNSLKPEDTAVYYCAADLAEFYPRFNYWGQGTQVTVSS”, for which the “polyreactivity (PSR sort gate)” value is listed as “low polyreactivity”.

Regarding “QVQLVESGGGLVQAGGSLRLTCAASGRTFDYNAMGWYIQAPGKERELVAAISQSGGRTYYADSVKGRFTISRDHAKNTVYLQMNSLKPEDTAVYYCAAEAYGNRDYWGQGTQVTVSS”, the “polyreactivity (PSR sort gate)” value is given as “low polyreactivity”.

“QVQLVESGGGLVQAGGSLRLSCAASGITFEGYAMGWYRQAPGKERELVAAIRSSGTSTYYADSVKGRFTISRDNAMNTVYLQMNSLKPEDYAVYYCNRARSSSRYDYWGQGTQGTVSS”: the “polyreactivity (PSR sort gate)” value is “low polyreactivity”.

With “QVQLVESGGGLVPAGGSLRLSWAASGRIFPRNTMGWYRQAPGKERELVAAISVSGGSTYYADSVKGRFTISRDNAKNTVYLQMNSLKPEDTAVYYSAARSARLEYYYWGQGTQVTVSS”, the “polyreactivity (PSR sort gate)” value is given as “high polyreactivity”.

Take “QVQLVESGGGLVQAGGSLRLSCAASGFTFYYYAMGWYRQAPGKERELVAAISSSGGSTSYADSVKGRFTISRDNAKNTVYLQMNSLKPEDTAVYYCAAVYWQSGRGKMCYWGQGTQVTVSS”: the “polyreactivity (PSR sort gate)” value is “high polyreactivity”.

Turning to “QDQLVESGGGLVQAGGSLRLSCAASGRTFNGYAMGWYRQAPGKDRELVARITYRGGGTYYADSVKGRFTISRDNAKNTVYLQMNILKTEDTAVYYCNARGVQYRYYYWGQGTQVTVSS”, the “polyreactivity (PSR sort gate)” value was “high polyreactivity”.

For “QVQLVESGGGLVQAGGSLRLSCAASGFIFISNAMGWSRQAPGKERELVARISDTDRTHYADSVKGRFTISRDNAKNTVYLQMNSLKPEDTAVYYCAAYDYNAIEYGYWGQGSQVTVSS”, the “polyreactivity (PSR sort gate)” value is “low polyreactivity”.
